Measurements as given in paper PMC3463533.

Legend:
[1] = NP-40-insoluble fraction, anti-V5 immunoblot
[2] = anti-V5 immunoblot of culture medium
[3] = glycan lost, control: wild type
[4] = glycan changed form, control: untreated
[5] = glycan lost, control: untreated

Substance: Surfactant protein A2 (SP-A2): N207A
- other: NP-40-insoluble aggregation [1, 3]: increases
- expression_or_secretion [2, 3]: decreases

Substance: Surfactant protein A2 (SP-A2): N207Q
- other: NP-40-insoluble aggregation [1, 3]: increases
- expression_or_secretion [2, 3]: decreases

Substance: Surfactant protein A2 (SP-A2): N207S
- other: NP-40-insoluble aggregation [1, 3]: increases
- expression_or_secretion [2, 3]: decreases

Substance: Surfactant protein A2 (SP-A2): N207T
- other: NP-40-insoluble aggregation [1, 3]: increases
- expression_or_secretion [2, 3]: decreases

Substance: Surfactant protein A2 (SP-A2): swainsonine
- other: NP-40-insoluble aggregation [1, 4]: no change
- expression_or_secretion [2, 4]: no change

Substance: Surfactant protein A2 (SP-A2): tunicamycin
- other: NP-40-insoluble aggregation [1, 5]: increases
- expression_or_secretion [2, 5]: decreases
